Measured values published in publication PMC9482650, “Quantitative fragmentomics allow affinity mapping of interactomes” (Nature Communications, 2022).

Key:
Experiment in all cases: holdup assay
Parameters in all cases: key: below the threshold = too weak to quantify, mostly under pKd 3.1 to 4
GRIP1_3, Q9Y3R0 = molecular target: T1, GRIP1_3, Q9Y3R0
T1 sequence (Q9Y3R0 247-346, limits assumed, looked up): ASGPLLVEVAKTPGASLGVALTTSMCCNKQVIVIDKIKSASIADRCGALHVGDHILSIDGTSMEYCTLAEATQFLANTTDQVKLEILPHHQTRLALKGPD

RHPN1, Q8TCX5 = molecular target: T2, RHPN1, Q8TCX5
T2 sequence (Q8TCX5 508-602, limits assumed, looked up): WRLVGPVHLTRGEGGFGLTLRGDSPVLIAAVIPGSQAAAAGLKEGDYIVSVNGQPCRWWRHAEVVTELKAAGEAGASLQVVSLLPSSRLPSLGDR

DLG5_1, Q8TDM6 = molecular target: DLG5_1, Q8TDM6
PCLO, Q9Y6V0 = molecular target: T3, PCLO, Q9Y6V0
T3 sequence (Q9Y6V0 4491-4600, limits assumed, looked up): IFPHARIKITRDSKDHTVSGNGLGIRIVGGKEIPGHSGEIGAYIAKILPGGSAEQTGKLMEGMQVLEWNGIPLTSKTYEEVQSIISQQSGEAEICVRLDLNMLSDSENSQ

GRIP2_7, Q9C0E4 = molecular target: GRIP2_7, Q9C0E4
HTRA1, Q92743 = molecular target: HTRA1, Q92743
MAGI2_3, Q86UL8 = molecular target: MAGI2_3, Q86UL8
DLG2_3, Q15700 = molecular target: DLG2_3, Q15700
GRIP1_7, Q9Y3R0 = molecular target: T4, GRIP1_7, Q9Y3R0
T4 sequence (Q9Y3R0 999-1096, limits assumed, looked up): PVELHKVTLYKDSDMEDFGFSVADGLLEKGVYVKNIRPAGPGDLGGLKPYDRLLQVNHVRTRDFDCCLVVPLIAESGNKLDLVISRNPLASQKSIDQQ

GRID2IP_2, A4D2P6 = molecular target: GRID2IP_2, A4D2P6
DLG2_2, Q15700 = molecular target: DLG2_2, Q15700
MAGI2_4, Q86UL8 = molecular target: MAGI2_4, Q86UL8
MAST1, Q9Y2H9 = molecular target: MAST1, Q9Y2H9
LRRC7, Q96NW7 = molecular target: T5, LRRC7, Q96NW7
T5 sequence (Q96NW7 1440-1537, limits assumed, looked up): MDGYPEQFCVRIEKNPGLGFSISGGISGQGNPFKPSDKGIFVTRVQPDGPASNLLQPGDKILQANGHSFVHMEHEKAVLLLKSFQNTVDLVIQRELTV

NHERF3_3, Q5T2W1 = molecular target: T6, NHERF3_3, Q5T2W1
T6 sequence (Q5T2W1 238-333, limits assumed, looked up): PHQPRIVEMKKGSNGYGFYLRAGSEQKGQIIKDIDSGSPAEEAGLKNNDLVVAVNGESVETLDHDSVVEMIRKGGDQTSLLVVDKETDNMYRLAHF

SYNJ2BP, P57105 = molecular target: T7, SYNJ2BP, P57105
T7 sequence (P57105 8-110, limits assumed, looked up): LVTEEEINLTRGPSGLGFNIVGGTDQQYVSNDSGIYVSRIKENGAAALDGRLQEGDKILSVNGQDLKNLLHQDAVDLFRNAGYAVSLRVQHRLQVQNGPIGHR

NHERF3_4, Q5T2W1 = molecular target: T8, NHERF3_4, Q5T2W1
T8 sequence (Q5T2W1 373-468, limits assumed, looked up): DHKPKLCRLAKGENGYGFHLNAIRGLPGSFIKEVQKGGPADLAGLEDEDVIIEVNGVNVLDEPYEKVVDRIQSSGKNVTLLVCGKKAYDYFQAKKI

TX1BP3, O14907 = molecular target: T9, TX1BP3, O14907
T9 sequence (O14907 10-122, limits assumed, looked up): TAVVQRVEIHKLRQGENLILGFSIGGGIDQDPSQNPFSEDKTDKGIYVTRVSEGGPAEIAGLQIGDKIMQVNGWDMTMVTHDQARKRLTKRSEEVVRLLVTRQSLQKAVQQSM

Inadl_5, Q8NI35 = molecular target: Inadl_5, Q8NI35
MPP7, Q5T2T1 = molecular target: T10, MPP7, Q5T2T1
T10 sequence (Q5T2T1 134-230, limits assumed, looked up): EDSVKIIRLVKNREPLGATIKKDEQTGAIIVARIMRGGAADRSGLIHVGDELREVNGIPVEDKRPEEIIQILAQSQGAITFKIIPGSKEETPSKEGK

MPDZ_5, O75970 = molecular target: T11, MPDZ_5, O75970
T11 sequence (O75970 695-796, limits assumed, looked up): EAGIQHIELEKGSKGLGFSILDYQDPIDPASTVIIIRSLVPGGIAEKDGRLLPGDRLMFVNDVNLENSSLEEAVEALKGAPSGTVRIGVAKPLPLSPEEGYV

LIMK2, P53671 = molecular target: LIMK2, P53671
SNTA1, Q13424 = molecular target: T12, SNTA1, Q13424
T12 sequence (Q13424 82-180, limits assumed, looked up): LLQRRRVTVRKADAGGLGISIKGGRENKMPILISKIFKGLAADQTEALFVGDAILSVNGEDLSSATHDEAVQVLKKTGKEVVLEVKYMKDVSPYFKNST

PDZRN4_1, Q6ZMN7 = molecular target: PDZRN4_1, Q6ZMN7
DLG1_2, Q12959 = molecular target: DLG1_2, Q12959
[1] = plain residues with an end cap or a label only (N-terminal biotin on a linker: (peg)3)
[2] = plain residues with an end cap or a label only (N-terminal biotin on a linker: ado-ado)

LIMK2, P53671, sequence (P53671 143-248): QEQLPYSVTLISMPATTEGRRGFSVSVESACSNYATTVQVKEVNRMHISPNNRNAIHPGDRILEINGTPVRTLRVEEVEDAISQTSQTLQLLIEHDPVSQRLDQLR
DLG5_1, Q8TDM6, sequence (Q8TDM6 617-713): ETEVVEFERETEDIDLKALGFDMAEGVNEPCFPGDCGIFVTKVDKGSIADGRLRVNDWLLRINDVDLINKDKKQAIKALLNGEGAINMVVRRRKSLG
GRID2IP_2, A4D2P6, sequence (A4D2P6 272-370): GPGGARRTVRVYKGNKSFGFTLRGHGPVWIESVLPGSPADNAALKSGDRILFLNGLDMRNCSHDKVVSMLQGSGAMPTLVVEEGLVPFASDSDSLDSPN
DLG1_2, Q12959, sequence (Q12959 314-412): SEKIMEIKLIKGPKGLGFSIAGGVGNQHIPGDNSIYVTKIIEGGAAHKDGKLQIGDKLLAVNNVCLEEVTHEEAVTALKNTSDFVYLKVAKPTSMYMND
MAST1, Q9Y2H9, sequence (Q9Y2H9 962-1065): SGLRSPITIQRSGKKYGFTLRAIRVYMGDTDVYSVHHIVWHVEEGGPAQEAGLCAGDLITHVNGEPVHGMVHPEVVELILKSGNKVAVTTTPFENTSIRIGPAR
PDZRN4_1, Q6ZMN7, sequence (Q6ZMN7 213-318): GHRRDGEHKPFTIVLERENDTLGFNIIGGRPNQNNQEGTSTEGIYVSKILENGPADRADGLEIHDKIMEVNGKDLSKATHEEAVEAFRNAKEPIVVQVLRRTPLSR
Inadl_5, Q8NI35, sequence (Q8NI35 673-780): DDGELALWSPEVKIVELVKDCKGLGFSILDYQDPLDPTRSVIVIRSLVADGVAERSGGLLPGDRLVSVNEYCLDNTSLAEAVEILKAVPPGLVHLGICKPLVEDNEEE
HTRA1, Q92743, sequence (Q92743 360-477): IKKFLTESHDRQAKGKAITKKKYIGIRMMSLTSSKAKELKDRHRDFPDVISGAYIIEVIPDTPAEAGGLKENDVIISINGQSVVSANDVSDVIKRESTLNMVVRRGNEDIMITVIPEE
GRIP2_7, Q9C0E4, sequence (Q9C0E4 934-1023): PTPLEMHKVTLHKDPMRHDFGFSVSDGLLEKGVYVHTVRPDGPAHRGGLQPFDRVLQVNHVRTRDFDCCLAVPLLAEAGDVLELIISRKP
MAGI2_3, Q86UL8, sequence (Q86UL8 600-682): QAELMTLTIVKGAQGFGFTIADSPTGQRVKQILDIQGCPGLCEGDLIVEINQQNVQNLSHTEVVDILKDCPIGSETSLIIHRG
MAGI2_4, Q86UL8, sequence (Q86UL8 772-865): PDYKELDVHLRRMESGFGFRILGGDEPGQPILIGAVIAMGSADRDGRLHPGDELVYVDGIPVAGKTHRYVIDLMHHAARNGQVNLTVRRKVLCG

B1: SARS-CoV-E, P59637 (peptide)
chain: NLNSSEGVPDLLV
- pKd (GRIP1_3, Q9Y3R0; [1]): below the threshold
- pKd (RHPN1, Q8TCX5; [1]): below the threshold
- pKd (DLG5_1, Q8TDM6; [1]): below the threshold
- pKd (PCLO, Q9Y6V0; [1]): below the threshold
- pKd (GRIP2_7, Q9C0E4; [1]): below the threshold
- pKd (HTRA1, Q92743; [1]): 4.57
- pKd (MAGI2_3, Q86UL8; [1]): below the threshold
- pKd (DLG2_3, Q15700; [1]): below the threshold
- pKd (GRIP1_7, Q9Y3R0; [1]): 4.04
- pKd (GRID2IP_2, A4D2P6; [1]): below the threshold
- pKd (DLG2_2, Q15700; [1]): below the threshold
- pKd (MAGI2_4, Q86UL8; [1]): below the threshold
- pKd (MAST1, Q9Y2H9; [1]): 3.79
- pKd (LRRC7, Q96NW7; [1]): below the threshold
- pKd (NHERF3_3, Q5T2W1; [1]): below the threshold
- pKd (SYNJ2BP, P57105; [1]): 3.99
- pKd (NHERF3_4, Q5T2W1; [1]): below the threshold
- pKd (TX1BP3, O14907; [1]): below the threshold
- pKd (Inadl_5, Q8NI35; [1]): below the threshold
- pKd (MPP7, Q5T2T1; [1]): below the threshold
- pKd (MPDZ_5, O75970; [1]): below the threshold
- pKd (LIMK2, P53671; [1]): below the threshold
- pKd (SNTA1, Q13424; [1]): below the threshold
- pKd (PDZRN4_1, Q6ZMN7; [1]): below the threshold
- pKd (DLG1_2, Q12959; [1]): below the threshold

B2: CES3, Q6UWW8 (peptide)
chain: QKNRKAQEDL
- pKd (GRIP1_3, Q9Y3R0; [2]): below the threshold
- pKd (RHPN1, Q8TCX5; [2]): below the threshold
- pKd (DLG5_1, Q8TDM6; [2]): below the threshold
- pKd (PCLO, Q9Y6V0; [2]): below the threshold
- pKd (GRIP2_7, Q9C0E4; [2]): below the threshold
- pKd (HTRA1, Q92743; [2]): below the threshold
- pKd (MAGI2_3, Q86UL8; [2]): 3.83
- pKd (DLG2_3, Q15700; [2]): 3.65
- pKd (GRIP1_7, Q9Y3R0; [2]): below the threshold
- pKd (GRID2IP_2, A4D2P6; [2]): below the threshold
- pKd (DLG2_2, Q15700; [2]): below the threshold
- pKd (MAGI2_4, Q86UL8; [2]): below the threshold
- pKd (MAST1, Q9Y2H9; [2]): below the threshold
- pKd (LRRC7, Q96NW7; [2]): below the threshold
- pKd (NHERF3_3, Q5T2W1; [2]): below the threshold
- pKd (SYNJ2BP, P57105; [2]): below the threshold
- pKd (NHERF3_4, Q5T2W1; [2]): below the threshold
- pKd (TX1BP3, O14907; [2]): below the threshold
- pKd (Inadl_5, Q8NI35; [2]): below the threshold
- pKd (MPP7, Q5T2T1; [2]): 3.61
- pKd (MPDZ_5, O75970; [2]): below the threshold
- pKd (LIMK2, P53671; [2]): below the threshold
- pKd (SNTA1, Q13424; [2]): below the threshold
- pKd (PDZRN4_1, Q6ZMN7; [2]): below the threshold
- pKd (DLG1_2, Q12959; [2]): below the threshold

B3: PDLIM4_iso2, P50479;P50479-1 (peptide)
chain: VYPNAKVELV
- pKd (GRIP1_3, Q9Y3R0; [2]): below the threshold
- pKd (RHPN1, Q8TCX5; [2]): below the threshold
- pKd (DLG5_1, Q8TDM6; [2]): below the threshold
- pKd (PCLO, Q9Y6V0; [2]): below the threshold
- pKd (GRIP2_7, Q9C0E4; [2]): below the threshold
- pKd (HTRA1, Q92743; [2]): 4.62
- pKd (MAGI2_3, Q86UL8; [2]): below the threshold
- pKd (DLG2_3, Q15700; [2]): below the threshold
- pKd (GRIP1_7, Q9Y3R0; [2]): below the threshold
- pKd (GRID2IP_2, A4D2P6; [2]): below the threshold
- pKd (DLG2_2, Q15700; [2]): below the threshold
- pKd (MAST1, Q9Y2H9; [2]): below the threshold
- pKd (LRRC7, Q96NW7; [2]): below the threshold
- pKd (NHERF3_3, Q5T2W1; [2]): below the threshold
- pKd (SYNJ2BP, P57105; [2]): below the threshold
- pKd (NHERF3_4, Q5T2W1; [2]): below the threshold
- pKd (TX1BP3, O14907; [2]): below the threshold
- pKd (Inadl_5, Q8NI35; [2]): below the threshold
- pKd (MPP7, Q5T2T1; [2]): below the threshold
- pKd (MPDZ_5, O75970; [2]): below the threshold
- pKd (LIMK2, P53671; [2]): below the threshold
- pKd (SNTA1, Q13424; [2]): below the threshold
- pKd (PDZRN4_1, Q6ZMN7; [2]): below the threshold
- pKd (DLG1_2, Q12959; [2]): below the threshold
